The values below come from patent US12116424.

One test has as its target L. monocytogenes AgrC (Listeria monocytogenes (EGD-e)). Put plainly: cell-based or functional assay.
For the substance AIP A1dA (peptide), the EC50 (agr-GFP reporter, ΔagrD strain) came to 96.9 nM; the Max Activation Observed (agr-GFP reporter, ΔagrD strain) amounted to 58.8%; the Max Inhibition Observed (agr-GFP reporter, wild-type strain) turned out to be 15.2%.
For the substance AIP C2dC (peptide), the EC50 (agr-GFP reporter, ΔagrD strain) was 106 nM; the IC50 (agr-GFP reporter, wild-type strain) was determined as 3.97 µM; the Max Activation Observed (agr-GFP reporter, ΔagrD strain) was determined as 41%; the Max Inhibition Observed (agr-GFP reporter, wild-type strain) worked out at 48.4%.
As for AIP F3A (peptide), the Max Activation Observed (agr-GFP reporter, ΔagrD strain) is 9.72% and the Max Inhibition Observed (agr-GFP reporter, wild-type strain) was 3.65%.
Taken in the same sequence, the figures for AIP F3dF (peptide) were 6.63% and 14.7%.
AIP F5A (peptide) yielded a Max Activation Observed (agr-GFP reporter, ΔagrD strain) of 6.37%.
With AIP F5dF (peptide), the EC50 (agr-GFP reporter, ΔagrD strain) is 2180 nM; the Max Activation Observed (agr-GFP reporter, ΔagrD strain) was 72.3%; the Max Inhibition Observed (agr-GFP reporter, wild-type strain) was 2.71%.
On the same counts, the results for AIP M4A (peptide) are 1980 nM, 53.5% and 7.85%.
Substance AIP M4dM (peptide) showed an EC50 (agr-GFP reporter, ΔagrD strain) of 10.2 nM; a Max Activation Observed (agr-GFP reporter, ΔagrD strain) of 111%; a Max Inhibition Observed (agr-GFP reporter, wild-type strain) of 3.99%.
As for AIP V6A (peptide), the EC50 (agr-GFP reporter, ΔagrD strain) came to 241 nM; the Max Activation (agr-GFP reporter, ΔagrD strain) turned out to be 69%; the Max Activation Observed (agr-GFP reporter, ΔagrD strain) worked out at 69%; the Max Inhibition (agr-GFP reporter, wild-type strain) was found to be 15%. The Max Inhibition Observed (agr-GFP reporter, wild-type strain) turned out to be 15%.
As to AIP V6dV (peptide), the EC50 (agr-GFP reporter, ΔagrD strain) came to 883 nM and the Max Activation Observed (agr-GFP reporter, ΔagrD strain) was 72.9%.
L. grandensis tr AIP (peptide): the Max Activation (agr-GFP reporter, ΔagrD strain) came out at 10.1% and the Max Inhibition (agr-GFP reporter, wild-type strain) was determined as 0%.
On the same counts, the results for L. grayi AIP (peptide) are 10.7% and 0.42%.
In the case of L. kieliensis AIP (peptide), the Max Activation (agr-GFP reporter, ΔagrD strain) was 10.4% and the Max Inhibition (agr-GFP reporter, wild-type strain) worked out at 0%.
“L. monocytogenes AIP, A-(C-F-M-F-V) (peptide)” displayed an EC50 (agr-GFP reporter, ΔagrD strain) of 29.6 nM; a Max Activation (agr-GFP reporter, ΔagrD strain) of 114%; a Max Inhibition (agr-GFP reporter, wild-type strain) of 2.66%.
L. newyorkensis AIP (peptide) returned a Max Activation (agr-GFP reporter, ΔagrD strain) of 23.6% and a Max Inhibition (agr-GFP reporter, wild-type strain) of 0.96%.
Taken in the same sequence, the figures for L. weihenstephanensis AIP (peptide) were 11.2% and 0%.
Lm AIP F3S (peptide) registered a Max Activation (agr-GFP reporter, ΔagrD strain) of 16.1% and a Max Inhibition (agr-GFP reporter, wild-type strain) of 16.3%.

The target is the same in a further test. Put plainly: cell-based or functional assay. The source holds these as a separate data set.
AIP A1K/C2dC/M4dM (peptide) displayed an IC50 (agr-GFP reporter, wild-type strain) of 1770 nM; a Max Activation Observed (agr-GFP reporter, ΔagrD strain) of 8.1%; a Max Inhibition Observed (agr-GFP reporter, wild-type strain) of 88.6%.
As to AIP A1K/M4dM (peptide), the EC50 (agr-GFP reporter, ΔagrD strain) turned out to be 4.18 nM; the Max Activation Observed (agr-GFP reporter, ΔagrD strain) is 74.1%; the Max Inhibition Observed (agr-GFP reporter, wild-type strain) came to 20.2%.
AIP A1P (peptide) had an EC50 (agr-GFP reporter, ΔagrD strain) of 29 nM; an IC50 (agr-GFP reporter, wild-type strain) of 611 nM; a Max Activation Observed (agr-GFP reporter, ΔagrD strain) of 76.8%; a Max Inhibition Observed (agr-GFP reporter, wild-type strain) of 23.7%.
On the same counts, the results for AIP A1T (peptide) are 35.2 nM, 420 nM, 88.1% and 11.7%.
Regarding AIP A1V (peptide), the EC50 (agr-GFP reporter, ΔagrD strain) was 7.67 nM; the Max Activation Observed (agr-GFP reporter, ΔagrD strain) stood at 109%; the Max Inhibition Observed (agr-GFP reporter, wild-type strain) is 1.63%.
AIP C2Dap (peptide) gave an EC50 (agr-GFP reporter, ΔagrD strain) of 342 nM; a Max Activation Observed (agr-GFP reporter, ΔagrD strain) of 92.9%; a Max Inhibition Observed (agr-GFP reporter, wild-type strain) of 5.32%.
Turning to AIP C2dC/M4dM (peptide), the EC50 (agr-GFP reporter, ΔagrD strain) came out at 24.1 nM; the IC50 (agr-GFP reporter, wild-type strain) came out at 242 nM; the Max Activation Observed (agr-GFP reporter, ΔagrD strain) stood at 35.7%; the Max Inhibition Observed (agr-GFP reporter, wild-type strain) came out at 64.8%.
On to AIP C2dDap (peptide), for which the Max Activation Observed (agr-GFP reporter, ΔagrD strain) came to 14.3% and the Max Inhibition Observed (agr-GFP reporter, wild-type strain) is 19.3%.
Taken in the same sequence, the figures for AIP F3H (peptide) were 12.4% and 24.9%.
Substance AIP F3L (peptide) yielded an EC50 (agr-GFP reporter, ΔagrD strain) of 693 nM; an IC50 (agr-GFP reporter, wild-type strain) of 3600 nM; a Max Activation Observed (agr-GFP reporter, ΔagrD strain) of 37.6%; a Max Inhibition Observed (agr-GFP reporter, wild-type strain) of 33.4%.
The substance AIP F3W (peptide) came in with an EC50 (agr-GFP reporter, ΔagrD strain) of 414 nM; an IC50 (agr-GFP reporter, wild-type strain) of 2180 nM; a Max Activation Observed (agr-GFP reporter, ΔagrD strain) of 60.6%; a Max Inhibition Observed (agr-GFP reporter, wild-type strain) of 27.1%.
Taken in the same sequence, the figures for AIP F3Y (peptide) were 518 nM, 3460 nM, 47.4% and 33.4%.
As for AIP F5H (peptide), the Max Activation Observed (agr-GFP reporter, ΔagrD strain) stood at 7.13% and the Max Inhibition Observed (agr-GFP reporter, wild-type strain) stood at 2.19%.
As for AIP F5L (peptide), the EC50 (agr-GFP reporter, ΔagrD strain) worked out at 2060 nM; the Max Activation Observed (agr-GFP reporter, ΔagrD strain) came out at 64.8%; the Max Inhibition Observed (agr-GFP reporter, wild-type strain) was 8.97%.
Taken in the same sequence, the figures for AIP F5W (peptide) were 1130 nM, 85.8% and 8.43%.
Take AIP F5Y (peptide): the EC50 (agr-GFP reporter, ΔagrD strain) was 5620 nM; the Max Activation Observed (agr-GFP reporter, ΔagrD strain) amounted to 44.4%; the Max Inhibition Observed (agr-GFP reporter, wild-type strain) was 6.61%.
Taken in the same sequence, the figures for AIP M4dA (peptide) were 455 nM, 82% and 9.54%.
“L. monocytogenes AIP, A-(C-F-M-F-V) (peptide)”: the EC50 (agr-GFP reporter, ΔagrD strain) is 29.7 nM and the Max Activation Observed (agr-GFP reporter, ΔagrD strain) was 114%.
